The subject of data set [1] is TTR. The data set can be described thus: TTR editing in primary cyno hepatocytes electroporated with Spy Cas9 protein and sgRNAs (Tables 14, 15). The class given is cell-based, cynomolgus monkey. The note with it: Table 15; primary cyno hepatocytes electroporated with Spy Cas9 protein (RNP) and cyno specific sgRNAs. The procedure: (§1) Primary liver hepatocytes. Primary human liver hepatocytes (PHH) and primary cynomolgus liver hepatocytes (PCH) (Gibco) were cultured per the manufacturer's protocol (Invitrogen, protocol 11.28.2012). In brief, the cells were thawed and resuspended in hepatocyte thawing medium with supplements (Gibco, Cat. CM7000) followed by centrifugation at 100 g for 10 minutes for human and 80 g for 4 minutes for cyno. The supernatant was discarded and the pelleted cells resuspended in hepatocyte plating medium plus supplement pack (Invitrogen, Cat. A1217601 and CM3000). Cells were counted and plated on Bio-coat collagen I coated 96-well plates (ThermoFisher, Cat. 877272) at a density of 33,000 cells/well for human or 60,000 cells/well for cyno (or 65,000 cells/well when assaying effects on TTR protein, described further below). Plated cells were allowed to settle and adhere for 6 or 24 hours in a tissue culture incubator at 37° C. and 5% CO2 atmosphere. After incubation cells were checked for monolayer formation and media was replaced with hepatocyte culture medium with serum-free supplement pack (Invitrogen, Cat. A1217601 and CM4000).
[…] formation was performed prior to electroporation or transfection of Spy Cas9 protein loaded with guide RNAs (RNPs) onto cells. For dual guide (dgRNAs), individual crRNA and trRNA was pre-annealed by mixing equivalent amounts of reagent and incubating at 95° C. for 2 min and cooling to room temperature. Single guide (sgRNAs) were boiled at 95° C. for 2 min and cooling to room temperature. The boiled dgRNA or sgRNA was incubated with Spy Cas9 protein in Optimem for 10 minutes at room temperature to form a ribonucleoprotein (RNP) complex.
For RNP electroporation into primary human and cyno hepatocytes, the cells are thawed and resuspended in Lonza electroporation Primary Cell P3 buffer at a concentration of 2500 cells per μL for human hepatocytes and 3500 cells per μL for cyno hepatocytes. A volume of 20 μL of resuspended cells and 5 μL of RNP are mixed together per guide. 20 μL of the mixture is placed into a Lonza electroporation plate. The cells were electroporated using the Lonza nucleofector with the preset protocol EX-147. Post electroporation, the cells are transferred into a Biocoat plate containing pre-warmed maintenance media and placed in a tissue culture incubator at 37° C. and 5% CO2.
Transfected cells were harvested post-transfection at 24, 48, or 72 hours. The genomic DNA was extracted from each well of a 96-well plate using 50 μL/well BuccalAmp DNA Extraction solution (Epicentre, Cat. QE09050) per manufacturer's protocol. All DNA samples were subjected to PCR and subsequent NGS analyses, as described herein.
(§2) To quantitatively determine the efficiency of editing at the target location in the genome, sequencing was utilized to identify the presence of insertions and deletions introduced by gene editing.
(§3) Primers were designed around the target site within the gene of interest (e.g. TTR), and the genomic area of interest was amplified.
(§4) Additional PCR was performed per the manufacturer's protocols (Illumina) to add chemistry for sequencing. The amplicons were sequenced on an Illumina MiSeq instrument. The reads were aligned to a reference genome (e.g., the human reference genome (hg38), the cynomologus reference genome (mf5), the rat reference genome (rn6), or the mouse reference genome (mm10)) after eliminating those having low quality scores. The resulting files containing the reads were mapped to the reference genome (BAM files), where reads that overlapped the target region of interest were selected and the number of wild type reads versus the number of reads which contain an insertion, substitution, or deletion was calculated.
The editing percentage (e.g., the “editing efficiency” or “percent editing” or “indel frequency”) is defined as the total number of sequence reads with insertions/deletions (“indels”) or substitutions over the total number of sequence reads, including wild type. […]

In data set [2] the test system is TTR. The data set can be described thus: TTR editing in primary cyno hepatocytes treated with LNP formulated Spy Cas9 mRNA (SEQ ID NO: 2) and sgRNAs (Tables 17, 18). In kind it is cell-based, cynomolgus monkey. The note with it: LNP formulated Spy Cas9 mRNA (SEQ ID NO: 2) and cyno matched sgRNAs, 72 hours post treatment. The procedure: as §1
In general, the lipid nanoparticle components were dissolved in 100% ethanol with the lipid component of various molar ratios. The RNA cargos were dissolved in 25 mM citrate, 100 mM NaCl, pH 5.0, resulting in a concentration of RNA cargo of approximately 0.45 mg/mL. The LNPs were formulated with a lipid amine to RNA phosphate (N:P) molar ratio of about 4.5 or about 6, with the ratio of mRNA to gRNA at 1:1 by weight.
The LNPs were formed by microfluidic mixing of the lipid and RNA solutions using a Precision Nanosystems NanoAssemblr™ Benchtop Instrument, according to the manufacturer's protocol. A 2:1 ratio of aqueous to organic solvent was maintained during mixing using differential flow rates. After mixing, the LNPs were collected, diluted in water (approximately 1:1 v/v), held for 1 hour at room temperature, and further diluted with water (approximately 1:1 v/v) before final buffer exchange. The final buffer exchange into 50 mM Tris, 45 mM NaCl, 5% (w/v) sucrose, pH 7.5 (TSS) was completed with PD-10 desalting columns (GE). If required, formulations were concentrated by centrifugation with Amicon 100 kDa centrifugal filters (Millipore). The resulting mixture was then filtered using a 0.2 μm sterile filter. The final LNP was stored at −80° C. until further use.
as §2, §3, §4
(§5) The editing percentage (e.g., the “editing efficiency” or “percent editing” or “indel frequency”) is defined as the total number of sequence reads with insertions/deletions (“indels”) or substitutions over the total number of sequence reads, including wild type.
Lipid nanoparticle formulations of modified sgRNAs targeting human TTR and the cyno matched sgRNA sequences were tested on primary human hepatocytes and primary cyno hepatocytes in a dose response curve. Primary human and cyno hepatocytes were plated as described in Example 1. […]

The subject of data set [3] is TTR. Put plainly: EC50 and maximum editing in primary human hepatocytes treated with LNP formulated U-depleted Spy Cas9 mRNA and sgRNAs (Tables 19, 21). In kind it is cell-based. Set-up: key: % of sequence reads with indels or substitutions over total reads. The following applies: Table 21, LNP with U-depleted Spy Cas9 mRNA and cyno specific sgRNAs, dose response. How it is done: as §1
(§6) For LNPs prepared using the cross-flow technique, the LNPs were formed by impinging jet mixing of the lipid in ethanol with two volumes of RNA solutions and one volume of water. The lipid in ethanol is mixed through a mixing cross with the two volumes of RNA solution. A fourth stream of water is mixed with the outlet stream of the cross through an inline tee. (See WO2016010840 FIG. 2.) The LNPs were held for 1 hour at room temperature, and further diluted with water (approximately 1:1 v/v). Diluted LNPs were concentrated using tangential flow filtration on a flat sheet cartridge (Sartorius, 100 kD MWCO) and then buffer exchanged by diafiltration into 50 mM Tris, 45 mM NaCl, 5% (w/v) sucrose, pH 7.5 (TSS). Alternatively, the final buffer exchange into TSS was completed with PD-10 desalting columns (GE). If required, formulations were concentrated by centrifugation with Amicon 100 kDa centrifugal filters (Millipore). The resulting mixture was then filtered using a 0.2 μm sterile filter. The final LNP was stored at 4° C. or −80° C. until further use.
as §2, §3, §4, §5
(§7) Lipid nanoparticle formulations of modified sgRNAs targeting human TTR and the cyno matched sgRNA sequences were tested on primary human hepatocytes and primary cyno hepatocytes in a dose response curve. Primary human and cyno hepatocytes were plated as described in Example 1. Both cell lines were incubated at 37° C., 5% CO2 for 24 hours prior to treatment with LNPs. […]

The subject of data set [4] is TTR. Put plainly: EC50 and maximum editing in primary cyno hepatocytes treated with LNP formulated U-depleted Spy Cas9 mRNA and sgRNAs (Tables 20, 22). The class given is cell-based, cynomolgus monkey. Set-up: key: % of sequence reads with indels or substitutions over total reads. The following applies: Table 22, LNP with U-depleted Spy Cas9 mRNA and cyno specific sgRNAs, dose response. How it is done:
as §1, §6, §2, §3, §4, §5, §7

Strand notation (5' to 3'): a small letter for the sugar, then the base; units joined by * are phosphorothioate-linked, units joined directly phosphodiester-linked; [ ] holds rarer units or linkages, { } end groups; capitals alone tell only the bases. m = 2'-O-methyl; r = 2'-OH (RNA)

B1: G000506: TTR Cyno specific sgRNA modified sequence, SEQ ID No. 118; guide sequence of CR005366 (nucleic acid)
guide: mA*mU*mA*rCrCrArGrUrCrCrArGrCrGrArGrGrCrArGrGrUrUrUrUrArGrAmGmCmUmAmGmAmAmAmUmAmGmCrArArGrUrUrArArArArUrArArGrGrCrUrArGrUrCrCrGrUrUrArUrCrAmAmCmUmUmGmAmAmAmAmAmGmUmGmGmCmAmCmCmGmAmGmUmCmGmGmUmGmCmU*mU*mU*mU
On to B1, for which, in the data set with TTR [1], the “Avg % Deletion” value was found to be 3.07%, the “Avg % Edit” value is listed as 89.43% and the “Avg % Insert” value is reported as 86.90%. For the same molecule, the “12.5 ng mRNA, 3.9 nM sgRNA % Edit” value with TTR [2] worked out at 60.13%. In the data set with TTR [3], the “Max Editing” value was 89.49. The “Max Editing” value with TTR [4] was 99.18.

The values are drawn from patent US11795460B2, “Compositions and methods for TTR gene editing and treating ATTR amyloidosis” (Intellia Therapeutics, Inc., priority 2017, dated 2023).
